Here are results for 7 molecules from patent US20130315910A1 (Xencor, published 2013).

The target in experiment [1] is T1, mFcγRIV.
T1 construct: also called mouse FcγRIV; not shown: C-terminal His and GST tags (named only on our card)
T1 chain: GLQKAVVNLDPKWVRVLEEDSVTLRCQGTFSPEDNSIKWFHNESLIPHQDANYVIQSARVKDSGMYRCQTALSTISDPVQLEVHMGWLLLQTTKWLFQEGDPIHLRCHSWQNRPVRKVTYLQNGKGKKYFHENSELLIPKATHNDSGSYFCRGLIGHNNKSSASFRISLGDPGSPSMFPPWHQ
The experiment is described as follows: SPR, off-rate.

The target in experiment [2] is T2, mFcγRIIb (Mus musculus, UniProt P08101).
T2 construct: extracellular region, C-terminal His- and GST-tag; also called mouse FcγRII
T2 sequence (receptor extracellular region, looked up): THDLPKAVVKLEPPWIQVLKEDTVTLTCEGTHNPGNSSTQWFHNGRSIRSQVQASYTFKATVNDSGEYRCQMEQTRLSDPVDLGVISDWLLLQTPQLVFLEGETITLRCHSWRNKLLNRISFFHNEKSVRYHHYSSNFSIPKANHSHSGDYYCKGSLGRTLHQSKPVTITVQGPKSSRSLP
The experiment is described as follows: SPR, off-rate.

Experiment [3] deals with T3, cynoFcγRIIb (Macaca fascicularis, UniProt A0A140HDP4).
T3 construct: extracellular region, C-terminal His- and GST-tag; also called cynomolgus monkey FcγRIIb
T3 sequence (receptor extracellular region): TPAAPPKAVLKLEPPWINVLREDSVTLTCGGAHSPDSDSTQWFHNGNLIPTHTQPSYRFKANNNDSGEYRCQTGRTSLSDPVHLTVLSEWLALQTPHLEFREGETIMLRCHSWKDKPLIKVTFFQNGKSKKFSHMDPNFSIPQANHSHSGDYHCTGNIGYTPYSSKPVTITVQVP
The experiment is described as follows: SPR, off-rate.

Experiment [4] concerns the target T4, cynoFcγRIIIa (Macaca fascicularis, UniProt Q8SPW2).
T4 construct: extracellular region, C-terminal His- and GST-tag; also called cynomolgus monkey FcγRIIIa
The experiment can be described thus: SPR, off-rate.

Experiment [5] addresses T5, human FcγRIIa (131R), His- and GST-tagged (human, UniProt P12318 34-217).
T5 construct: Expressed in HEK293T cells, purified by nickel chromatography; also called R131 FcγRIIa; not shown: 6xHis and GST tags of the pTT5 vector
T5 sequence (looked up): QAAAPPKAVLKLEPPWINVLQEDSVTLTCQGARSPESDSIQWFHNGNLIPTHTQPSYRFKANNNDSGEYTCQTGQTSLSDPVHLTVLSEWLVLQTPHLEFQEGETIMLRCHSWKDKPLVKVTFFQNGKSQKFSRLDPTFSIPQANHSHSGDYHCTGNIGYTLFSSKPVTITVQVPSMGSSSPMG
The experiment can be described thus: SPR.

For experiment [6], the target named is T6, human FcγRIIb receptor protein (R&D Systems) (human, UniProt P31994 46-217).
T6 construct: Bought protein injected over captured antibody in Biacore; also called CD32b
T6 sequence (looked up): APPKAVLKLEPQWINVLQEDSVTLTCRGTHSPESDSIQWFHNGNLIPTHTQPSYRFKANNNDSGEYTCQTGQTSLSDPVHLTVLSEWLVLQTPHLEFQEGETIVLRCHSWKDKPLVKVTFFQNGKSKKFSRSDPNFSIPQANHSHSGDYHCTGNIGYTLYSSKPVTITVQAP
The experiment can be described thus: SPR.

Experiment [7] deals with T7, human FcγRIIIa (158V), His- and GST-tagged (human, UniProt P08637 17-208).
T7 construct: also called V158 FcγRIIIa; VIIIa; not shown: 6xHis and GST tags of the pTT5 vector
T7 sequence (P08637 17-208 F176V): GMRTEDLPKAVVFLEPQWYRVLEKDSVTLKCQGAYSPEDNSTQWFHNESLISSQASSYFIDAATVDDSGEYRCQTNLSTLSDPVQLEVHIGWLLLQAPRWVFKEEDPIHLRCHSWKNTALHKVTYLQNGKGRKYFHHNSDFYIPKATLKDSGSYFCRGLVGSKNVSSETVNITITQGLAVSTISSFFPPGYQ
The experiment is described as follows: SPR.

For experiment [8], the target named is T8, human FcγRIIa (131H), His- and GST-tagged (human, UniProt P12318 34-217).
T8 construct: also called H131 FcγRIIa; HIIa; not shown: 6xHis and GST tags of the pTT5 vector
T8 sequence (looked up): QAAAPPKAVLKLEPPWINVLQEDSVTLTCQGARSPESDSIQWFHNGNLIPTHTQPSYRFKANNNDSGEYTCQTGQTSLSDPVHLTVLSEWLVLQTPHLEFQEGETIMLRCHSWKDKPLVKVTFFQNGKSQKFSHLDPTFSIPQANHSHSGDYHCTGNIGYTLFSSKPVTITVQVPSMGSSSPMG
The experiment can be described thus: SPR.

Experiment [9] concerns the target T9, human FcγRI receptor protein (R&D Systems) (human, UniProt P12314 16-288).
T9 construct: also called soluble FcγRI; solFcγRI
The experiment can be described thus: SPR.

Experiment [10] deals with T10, human FcγRIIIa (158F), His- and GST-tagged (human, UniProt P08637 17-208).
T10 construct: also called F158 FcγRIIIa; not shown: 6xHis and GST tags of the pTT5 vector
T10 sequence (P08637 17-208): as the sequence (P08637 17-208 F176V) above, with V160F counted along it
The experiment is described as follows: SPR.

For experiment [11], the target named is T1, mFcγRIV. The experiment is described as follows: SPR.
In experiment [12] the target is T2, mFcγRIIb. The experiment is described as follows: SPR.
The target in experiment [13] is T3, cynoFcγRIIb. The experiment is described as follows: SPR.
Experiment [14] concerns the target T4, cynoFcγRIIIa. The experiment can be described thus: SPR.
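Throughout, for Fold vs WT IgG1 (off-rate): fold improvement over WT IgG1 so higher means slower dissociation than WT.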

T9 sequence (P12314 16-288 limits assumed): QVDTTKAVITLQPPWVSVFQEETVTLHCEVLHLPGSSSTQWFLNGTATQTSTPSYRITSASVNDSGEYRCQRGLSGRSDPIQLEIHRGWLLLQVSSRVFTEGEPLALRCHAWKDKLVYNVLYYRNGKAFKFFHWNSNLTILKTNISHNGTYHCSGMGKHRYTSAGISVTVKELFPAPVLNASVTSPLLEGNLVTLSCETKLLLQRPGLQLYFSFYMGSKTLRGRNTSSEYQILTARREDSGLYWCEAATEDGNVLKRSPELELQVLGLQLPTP
T4 sequence (Q8SPW2 17-208): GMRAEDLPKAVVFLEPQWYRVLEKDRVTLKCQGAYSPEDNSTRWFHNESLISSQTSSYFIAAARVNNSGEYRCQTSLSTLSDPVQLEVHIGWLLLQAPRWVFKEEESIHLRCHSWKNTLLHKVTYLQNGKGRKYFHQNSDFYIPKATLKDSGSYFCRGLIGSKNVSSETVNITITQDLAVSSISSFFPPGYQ

B1: G237A (antibody, human IgG1, kappa)
heavy: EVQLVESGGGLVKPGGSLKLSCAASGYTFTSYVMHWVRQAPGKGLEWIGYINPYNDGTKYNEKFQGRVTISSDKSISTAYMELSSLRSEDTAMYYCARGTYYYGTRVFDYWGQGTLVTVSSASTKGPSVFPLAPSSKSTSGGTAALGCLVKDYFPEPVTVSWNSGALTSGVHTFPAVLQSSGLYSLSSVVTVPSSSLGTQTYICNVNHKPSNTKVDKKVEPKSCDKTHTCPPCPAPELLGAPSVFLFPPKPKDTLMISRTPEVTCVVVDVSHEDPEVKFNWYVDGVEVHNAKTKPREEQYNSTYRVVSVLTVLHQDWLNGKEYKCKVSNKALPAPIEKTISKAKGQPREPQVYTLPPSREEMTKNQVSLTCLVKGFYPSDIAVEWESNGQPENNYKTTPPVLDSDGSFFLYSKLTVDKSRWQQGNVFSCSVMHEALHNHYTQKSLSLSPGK
light: DIVMTQSPATLSLSPGERATLSCRSSKSLQNVNGNTYLYWFQQKPGQSPQLLIYRMSNLNSGVPDRFSGSGSGTEFTLTISSLEPEDFAVYYCMQHLEYPITFGAGTKLEIKRTVAAPSVFIFPPSDEQLKSGTASVVCLLNNFYPREAKVQWKVDNALQSGNSQESVTEQDSKDSTYSLSSTLTLSKADYEKHKVYACEVTHQGLSSPVTKSFNRGEC
notes: HuAM4G7 anti-CD19 IgG1 (m1) with this Fc substitution, EU index; copies: 2 + 2
As for B1, the binding result (with mFcγRIV [1]; with mFcγRIIb [2]; in the experiment with cynoFcγRIIb [3]; in the experiment with cynoFcγRIIIa [4]; in experiment [7]; in [8]) was “no binding” each time. For the same molecule, the “Fold vs WT IgG1” value in experiment [5] is 0.704 fold; in experiment [6], 0.191 fold; in [9], 0.0108 fold. For the same molecule, the Kd in experiment [5] is 1220 nM; in [6], 7680 nM; in [9] it was 30.5 nM.

B2: anti-CD19 antibody HuAM4G7 IgG1 ^236R/L328R (antibody)
heavy: EVQLVESGGGLVKPGGSLKLSCAASGYTFTSYVMHWVRQAPGKGLEWIGYINPYNDGTKYNEKFQGRVTISSDKSISTAYMELSSLRSEDTAMYYCARGTYYYGTRVFDYWGQGTLVTVSSASTKGPSVFPLAPSSKSTSGGTAALGCLVKDYFPEPVTVSWNSGALTSGVHTFPAVLQSSGLYSLSSVVTVPSSSLGTQTYICNVNHKPSNTKVDKKVEPKSCDKTHTCPPCPAPELLGRGPSVFLFPPKPKDTLMISRTPEVTCVVVDVSHEDPEVKFNWYVDGVEVHNAKTKPREEQYNSTYRVVSVLTVLHQDWLNGKEYKCKVSNKARPAPIEKTISKAKGQPREPQVYTLPPSREEMTKNQVSLTCLVKGFYPSDIAVEWESNGQPENNYKTTPPVLDSDGSFFLYSKLTVDKSRWQQGNVFSCSVMHEALHNHYTQKSLSLSPGK
light: DIVMTQSPATLSLSPGERATLSCRSSKSLQNVNGNTYLYWFQQKPGQSPQLLIYRMSNLNSGVPDRFSGSGSGTEFTLTISSLEPEDFAVYYCMQHLEYPITFGAGTKLEIKRTVAAPSVFIFPPSDEQLKSGTASVVCLLNNFYPREAKVQWKVDNALQSGNSQESVTEQDSKDSTYSLSSTLTLSKADYEKHKVYACEVTHQGLSSPVTKSFNRGEC
notes: also called Fc-KO; FcγR knockout
On to B2, for which the binding result in experiment [5], in experiment [6], in [10], in [7], in experiment [8] and in experiment [9] was “no binding” in each case.

B3: P329E (antibody, human IgG1, kappa)
heavy: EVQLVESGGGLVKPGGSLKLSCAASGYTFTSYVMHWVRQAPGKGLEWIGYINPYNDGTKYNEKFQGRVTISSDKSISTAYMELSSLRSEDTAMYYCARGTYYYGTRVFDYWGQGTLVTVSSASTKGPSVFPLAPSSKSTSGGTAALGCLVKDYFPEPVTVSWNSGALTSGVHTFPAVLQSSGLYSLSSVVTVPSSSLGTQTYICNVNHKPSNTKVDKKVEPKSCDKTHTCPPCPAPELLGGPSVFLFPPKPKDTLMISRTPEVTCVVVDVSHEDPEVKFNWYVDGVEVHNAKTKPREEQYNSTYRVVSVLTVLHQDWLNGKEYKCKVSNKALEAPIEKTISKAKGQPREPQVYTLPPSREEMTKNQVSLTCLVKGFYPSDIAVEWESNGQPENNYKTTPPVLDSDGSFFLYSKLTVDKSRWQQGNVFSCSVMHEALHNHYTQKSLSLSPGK
light: DIVMTQSPATLSLSPGERATLSCRSSKSLQNVNGNTYLYWFQQKPGQSPQLLIYRMSNLNSGVPDRFSGSGSGTEFTLTISSLEPEDFAVYYCMQHLEYPITFGAGTKLEIKRTVAAPSVFIFPPSDEQLKSGTASVVCLLNNFYPREAKVQWKVDNALQSGNSQESVTEQDSKDSTYSLSSTLTLSKADYEKHKVYACEVTHQGLSSPVTKSFNRGEC
notes: as for B1
For the molecule B3, the binding result with mFcγRIV [1], with mFcγRIIb [2], in the experiment with cynoFcγRIIb [3] and with cynoFcγRIIIa [4] was “no binding” in each case. In addition, the “Fold vs WT IgG1” value came out at 0.0859 fold in experiment [5] and 0.147 fold in [6]. The Kd in experiment [5] and in [6] was 10000 nM each time.

B4: V266D (antibody, human IgG1, kappa)
heavy: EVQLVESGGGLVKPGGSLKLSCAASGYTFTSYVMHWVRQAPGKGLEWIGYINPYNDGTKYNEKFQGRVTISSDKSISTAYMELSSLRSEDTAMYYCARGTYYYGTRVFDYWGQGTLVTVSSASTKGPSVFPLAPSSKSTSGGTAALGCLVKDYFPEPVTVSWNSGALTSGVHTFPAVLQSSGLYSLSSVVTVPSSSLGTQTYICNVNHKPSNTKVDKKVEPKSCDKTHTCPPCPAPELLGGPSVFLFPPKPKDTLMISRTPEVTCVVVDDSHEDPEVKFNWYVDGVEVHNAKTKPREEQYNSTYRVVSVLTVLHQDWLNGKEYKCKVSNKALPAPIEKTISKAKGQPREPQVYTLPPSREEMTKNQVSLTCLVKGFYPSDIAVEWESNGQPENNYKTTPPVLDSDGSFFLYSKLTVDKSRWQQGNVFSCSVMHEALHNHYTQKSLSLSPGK
light: DIVMTQSPATLSLSPGERATLSCRSSKSLQNVNGNTYLYWFQQKPGQSPQLLIYRMSNLNSGVPDRFSGSGSGTEFTLTISSLEPEDFAVYYCMQHLEYPITFGAGTKLEIKRTVAAPSVFIFPPSDEQLKSGTASVVCLLNNFYPREAKVQWKVDNALQSGNSQESVTEQDSKDSTYSLSSTLTLSKADYEKHKVYACEVTHQGLSSPVTKSFNRGEC
notes: as for B1
Turning to B4, the binding result in the experiment with mFcγRIV [1], in the experiment with mFcγRIIb [2], with cynoFcγRIIb [3] and in the experiment with cynoFcγRIIIa [4] was “no binding” in each case. Also, the “Fold vs WT IgG1” value in experiment [5] came to 0.704 fold; in [6] it was 0.147 fold. The dissociation constant (Kd) is 1220 nM in [5] and 10000 nM in experiment [6].

B5: anti-CD19 antibody HuAM4G7 IgG1 G236D/S267E (antibody)
heavy: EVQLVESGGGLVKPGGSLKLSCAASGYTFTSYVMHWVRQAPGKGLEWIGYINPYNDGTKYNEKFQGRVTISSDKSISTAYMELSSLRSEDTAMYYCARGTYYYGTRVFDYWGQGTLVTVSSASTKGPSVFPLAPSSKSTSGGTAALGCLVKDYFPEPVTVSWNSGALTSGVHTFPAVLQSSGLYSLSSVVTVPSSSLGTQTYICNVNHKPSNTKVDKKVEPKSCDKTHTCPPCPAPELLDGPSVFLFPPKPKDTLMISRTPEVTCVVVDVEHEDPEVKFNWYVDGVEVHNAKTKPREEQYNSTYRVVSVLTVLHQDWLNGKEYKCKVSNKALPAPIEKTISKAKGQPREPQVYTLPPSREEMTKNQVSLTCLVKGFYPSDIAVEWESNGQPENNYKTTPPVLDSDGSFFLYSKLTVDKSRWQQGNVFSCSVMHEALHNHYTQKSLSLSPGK
light: DIVMTQSPATLSLSPGERATLSCRSSKSLQNVNGNTYLYWFQQKPGQSPQLLIYRMSNLNSGVPDRFSGSGSGTEFTLTISSLEPEDFAVYYCMQHLEYPITFGAGTKLEIKRTVAAPSVFIFPPSDEQLKSGTASVVCLLNNFYPREAKVQWKVDNALQSGNSQESVTEQDSKDSTYSLSSTLTLSKADYEKHKVYACEVTHQGLSSPVTKSFNRGEC
notes: Positions in EU numbering; copies: 2 + 2
For the molecule B5, the binding result in the experiment with mFcγRIV [1], in the experiment with mFcγRIIb [2], with cynoFcγRIIb [3] and with cynoFcγRIIIa [4] was “no binding” throughout. For the same molecule, the Kd came out at 26.6 nM in experiment [6], 579 nM in [7], 2730 nM in experiment [8] and 3.71 nM in experiment [9].

B6: anti-CD19 antibody HuAM4G7 IgG1 G236R/L328R (antibody)
heavy: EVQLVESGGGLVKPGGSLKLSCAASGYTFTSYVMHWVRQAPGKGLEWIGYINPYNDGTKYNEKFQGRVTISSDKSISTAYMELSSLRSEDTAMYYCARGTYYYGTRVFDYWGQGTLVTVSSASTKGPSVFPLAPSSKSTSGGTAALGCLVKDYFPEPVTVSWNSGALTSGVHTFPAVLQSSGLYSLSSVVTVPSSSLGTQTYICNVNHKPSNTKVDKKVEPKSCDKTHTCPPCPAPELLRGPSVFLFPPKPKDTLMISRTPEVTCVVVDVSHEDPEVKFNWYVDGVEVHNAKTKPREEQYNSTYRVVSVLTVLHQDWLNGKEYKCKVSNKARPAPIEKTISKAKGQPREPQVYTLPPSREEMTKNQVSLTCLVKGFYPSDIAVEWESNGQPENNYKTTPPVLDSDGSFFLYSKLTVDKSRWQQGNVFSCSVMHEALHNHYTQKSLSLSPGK
light: DIVMTQSPATLSLSPGERATLSCRSSKSLQNVNGNTYLYWFQQKPGQSPQLLIYRMSNLNSGVPDRFSGSGSGTEFTLTISSLEPEDFAVYYCMQHLEYPITFGAGTKLEIKRTVAAPSVFIFPPSDEQLKSGTASVVCLLNNFYPREAKVQWKVDNALQSGNSQESVTEQDSKDSTYSLSSTLTLSKADYEKHKVYACEVTHQGLSSPVTKSFNRGEC
notes: Control knock out variant; Positions in EU numbering; also called Fc-KO; FcγR knockout
Regarding B6, the binding result in [5], in experiment [6], in experiment [10], in experiment [7], in experiment [8] and in experiment [9] was “no binding” in each case.

B7: anti-CD19 antibody HuAM4G7 IgG1 S239D/S267E (antibody)
heavy: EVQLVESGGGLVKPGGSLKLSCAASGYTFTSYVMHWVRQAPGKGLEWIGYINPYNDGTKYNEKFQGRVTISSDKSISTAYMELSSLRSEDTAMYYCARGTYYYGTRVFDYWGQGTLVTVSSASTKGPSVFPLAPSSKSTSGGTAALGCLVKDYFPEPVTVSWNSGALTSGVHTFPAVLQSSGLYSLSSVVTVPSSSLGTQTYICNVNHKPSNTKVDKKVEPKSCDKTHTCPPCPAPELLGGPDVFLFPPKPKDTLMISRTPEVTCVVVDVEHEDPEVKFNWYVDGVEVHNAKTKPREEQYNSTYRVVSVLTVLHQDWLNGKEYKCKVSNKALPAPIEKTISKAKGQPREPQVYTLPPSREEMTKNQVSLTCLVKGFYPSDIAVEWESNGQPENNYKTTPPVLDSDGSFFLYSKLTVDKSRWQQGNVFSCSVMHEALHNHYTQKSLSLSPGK
light: DIVMTQSPATLSLSPGERATLSCRSSKSLQNVNGNTYLYWFQQKPGQSPQLLIYRMSNLNSGVPDRFSGSGSGTEFTLTISSLEPEDFAVYYCMQHLEYPITFGAGTKLEIKRTVAAPSVFIFPPSDEQLKSGTASVVCLLNNFYPREAKVQWKVDNALQSGNSQESVTEQDSKDSTYSLSSTLTLSKADYEKHKVYACEVTHQGLSSPVTKSFNRGEC
notes: as for B5
Take B7: the “Fold vs WT IgG1 (Kd)” value came out at 0.726 fold with mFcγRIV [11], 1.75 fold with mFcγRIIb [12], 1.59 fold with cynoFcγRIIb [13] and 3.88 fold in the experiment with cynoFcγRIIIa [14]. For the same molecule, the “Fold vs WT IgG1 (off-rate)” value came to 1.54 fold with mFcγRIV [11], 7.87 fold with mFcγRIIb [12], 2.53 fold with cynoFcγRIIb [13] and 1.68 fold with cynoFcγRIIIa [14]. Besides, the “Fold vs WT IgG1” value in experiment [5] stood at 120 fold; in [6], 111 fold; in experiment [7], 3.74 fold; in experiment [8], 1.27 fold; in experiment [9], 23.2 fold. For the same molecule, the Kd in [5] was 7.16 nM; in experiment [6] it was 13.3 nM; in experiment [10], 516 nM; in [7] it was 51.2 nM; in experiment [8], 510 nM; in experiment [9], 0.0142 nM.
